Experimental data reported in patent US20070134720.
Numbering of substitutions follows the chain as printed. Numbers in names are those of the source.

B1: Syno dTM synoviolin protein (GST moiety removed by thrombin) (protein)
chain: KVHTFPLFAIRPMYLAMRQFKKAVTDAIMSRRAIRNMNTLYPDATPEELQAMDNVCIICREEMVTGAKRLPCNHIFHTSCLRSWFQRQQTCPTCRMDVLRASLPAQSPPPPEPADQGPPPAPHPPPLLPQPPNFPQGLLPPFPPGMFPLWPPMGPFPPVPPPPSSGEAVAPPSTSAAALSRPSGAATTTAAGTSATAASATASGPGSGSAPEAGPAPGFPFPPPWMGMPLPPPFAFPPMPVPPAGFAGLTPEELRALEGHERQHLEARLQSLRNIHTLLDAAMLQINQYLTVLASLGPPRPATSVNSTEGTATTVVAAASSTSIPSSEATTPTPGASPPAPEMERPPAPESVGTEEMPEDGEPDAAELRRRRLQKLESPVAH
B2: Syno RING synoviolin protein (GST moiety removed by thrombin) (protein)
chain: IRNMNTLYPDATPEELQAMDNVCIICREEMVTGAKRLPCNHIFHTSCLRSWFQRQQTCPTCRMDVLRASLPAQSPPPPEPADQGPPPAPHPPPLLPQPPNFPQGLLPPFPPGMFPLWPPMGPFPPVPPPPSSGEAVAPPSTSAAALSRPSGA
B3: Syno dTM (C307S) with 307th cysteine to serine substitution (GST moiety removed by thrombin) (protein)
chain: B1 chain with C72S
B4: Syno dTM (dRING) with 291st to 329th amino acid deletion (GST moiety removed by thrombin) (protein)
chain: KVHTFPLFAIRPMYLAMRQFKKAVTDAIMSRRAIRNMNTLYPDATPEELQAMDNVRMDVLRASLPAQSPPPPEPADQGPPPAPHPPPLLPQPPNFPQGLLPPFPPGMFPLWPPMGPFPPVPPPPSSGEAVAPPSTSAAALSRPSGAATTTAAGTSATAASATASGPGSGSAPEAGPAPGFPFPPPWMGMPLPPPFAFPPMPVPPAGFAGLTPEELRALEGHERQHLEARLQSLRNIHTLLDAAMLQINQYLTVLASLGPPRPATSVNSTEGTATTVVAAASSTSIPSSEATTPTPGASPPAPEMERPPAPESVGTEEMPEDGEPDAAELRRRRLQKLESPVAH

The proteins below were run against GST-fused P4HA1 protein (whole region of P4HA1).
Sequence of GST-fused P4HA1 protein (whole region of P4HA1) (chain, as listed by the source): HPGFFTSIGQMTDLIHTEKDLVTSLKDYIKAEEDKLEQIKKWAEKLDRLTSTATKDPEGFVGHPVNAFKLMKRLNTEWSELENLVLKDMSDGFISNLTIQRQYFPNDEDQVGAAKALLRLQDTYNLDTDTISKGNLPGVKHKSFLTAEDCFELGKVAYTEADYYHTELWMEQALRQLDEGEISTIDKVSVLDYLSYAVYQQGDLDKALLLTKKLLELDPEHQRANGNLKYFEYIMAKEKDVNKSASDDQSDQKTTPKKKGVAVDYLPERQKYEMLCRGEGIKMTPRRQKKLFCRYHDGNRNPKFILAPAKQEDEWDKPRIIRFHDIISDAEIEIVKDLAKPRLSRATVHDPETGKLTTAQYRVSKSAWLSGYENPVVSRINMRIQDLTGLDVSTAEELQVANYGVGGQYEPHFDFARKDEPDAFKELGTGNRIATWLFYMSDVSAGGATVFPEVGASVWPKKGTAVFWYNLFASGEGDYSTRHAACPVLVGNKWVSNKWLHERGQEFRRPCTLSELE

Row | Protein | in vitro ubiquitination (32P-labeled ubiquitin, E1, E2 UbCH5c, ATP; SDS-PAGE autoradiography)
1 | B1 | P4HA1 was ubiquitinated by Syno dTM and Syno RING
2 | B2 | P4HA1 was ubiquitinated by Syno dTM and Syno RING
3 | B3 | P4HA1 was not ubiquitinated by Syno dTM (C307S) and Syno dTM (dRING)
4 | B4 | P4HA1 was not ubiquitinated by Syno dTM (C307S) and Syno dTM (dRING)
